Sequences and labels used below:
B1: GST-CTD (C-terminal domain of HIV-1 integrase, aa 201-288) [HIV-1 His6-SUMO-INI1_(183-304) [not stated] (parent)
chain 1: VDIIATDIQTKELQKQITKIQNFRVYYRDSRNPLWKGPAKLLWKGEGAVVIQDNSDIKVVPRRKAKIIRDYGKQMAGDDCVASRQDED
chain 2: PEVLVPIRLDMEIDGQKLRDAFTWNMNEKLMTPEMFSEILCDDLDLNPLTFVPAIASAIRQQIESYPTDSILEDQSDQRVIIKLNIHVGNISLVDQFEWDMSEKENSPEKFALKLCSELGLG

Variants of B1 are the subject of this experiment. The experiment in a line: Alpha assay. The following applies: with His6-SUMO-INI1_(183-304); low salt conditions; parent: 100; read off a plot.
chain 1 R28A: the percent of parent is 8 % of WT.

(Values after PMC8115288.)
